This is an account of results in US20220323563A1.

Read-outs that look alike come from different tables or passages of the source.

Experiment [1] has as its target F(ab)2 fragment of human IgG (human).
The target in experiment [2] is Fcγ fragment of human IgG (human).
Experiment [3] has the same target. Nature of the experiment: BLI, Ni-NTA sensor, SpA immobilised, Fc fragment of human IgG in solution.

Take “SpAQ9,10K/S33T (from UniProt P02976 37-327)”: the Ka worked out at 43.5 M⁻¹ in experiment [1] and 39.9 M⁻¹ in experiment [2].

For “SpAQ9,10K/G29F/D36,37A (from UniProt P02976 37-327)”, the human IgE affinity in the experiment with human IgE was 2.02e-05. In the case of “SpAQ9,10K/S33E (from UniProt P02976 37-327)”, the results for the Ka in experiment [1] and in experiment [2] were 41.2 M⁻¹ and 32.7 M⁻¹, respectively. Take “SpA (wild-type protein A, recombinant five IgBDs) (from UniProt P02976 37-327)”: the Ka in experiment [3] turned out to be 5.17e+07 M⁻¹.
